These are literature values, as cited in US20200276303A1, “Combination Therapies and Uses for Treatment of Demyelinating Disorders” (Biogen MA Inc., priority 2012, published 2020).

The conditions of the data set: for Disease activity measured by brain lesions (MRI scans) and relapse rate compared to placebo: Phase 2 clinical studies in relapse remitting MS.

As for alemtuzumab: antibody against CD52, the “Phase III studies comparing with Rebif (high-dose subcutaneous interferon beta-1a)” value (patients with relapsing-remitting MS (RRMS)) is “positive results”.

For ocrelizumab: antibody against CD20, the “Disease activity measured by brain lesions (MRI scans) and relapse rate compared to placebo” value is “statistically significant reduction”.

Consider rituximab: antibody against CD20, for which the “Disease activity measured by brain lesions (MRI scans) and relapse rate compared to placebo” value is “statistically significant reduction”.

B1: Daclizumab: therapeutic humanized monoclonal antibody to the alpha subunit of the IL-2 receptor of T cells (antibody, chains of the INN, looked up, V domains shown)
VH: QVQLVQSGAEVKKPGSSVKVSCKASGYTFTSYRMHWVRQAPGQGLEWIGYINPSTGYTEYNQKFKDKATITADESTNTAYMELSSLRSEDTAVYYCARGGGVFDYWGQGTLVTVSS
VL: DIQMTQSPSTLSASVGDRVTITCSASSSISYMHWYQQKPGKAPKLLIYTTSNLASGVPARFSGSGSGTEFTLTISSLQPDDFATYYCHQRSTYPLTFGQGTKVEVK
Turning to B1, the “Reducing lesions and improving clinical scores” value (patients with multiple sclerosis not controlled with interferon) was “effective”.
